pIC50: −log10 of the molar value.
Target: LILRB2 (human) (UniProt Q8N423)
Experiment: flow cytometry HLA-G blocking; hIgG4 isotype control

Sequence of UniProt Q8N423 (Q8N423 22-597): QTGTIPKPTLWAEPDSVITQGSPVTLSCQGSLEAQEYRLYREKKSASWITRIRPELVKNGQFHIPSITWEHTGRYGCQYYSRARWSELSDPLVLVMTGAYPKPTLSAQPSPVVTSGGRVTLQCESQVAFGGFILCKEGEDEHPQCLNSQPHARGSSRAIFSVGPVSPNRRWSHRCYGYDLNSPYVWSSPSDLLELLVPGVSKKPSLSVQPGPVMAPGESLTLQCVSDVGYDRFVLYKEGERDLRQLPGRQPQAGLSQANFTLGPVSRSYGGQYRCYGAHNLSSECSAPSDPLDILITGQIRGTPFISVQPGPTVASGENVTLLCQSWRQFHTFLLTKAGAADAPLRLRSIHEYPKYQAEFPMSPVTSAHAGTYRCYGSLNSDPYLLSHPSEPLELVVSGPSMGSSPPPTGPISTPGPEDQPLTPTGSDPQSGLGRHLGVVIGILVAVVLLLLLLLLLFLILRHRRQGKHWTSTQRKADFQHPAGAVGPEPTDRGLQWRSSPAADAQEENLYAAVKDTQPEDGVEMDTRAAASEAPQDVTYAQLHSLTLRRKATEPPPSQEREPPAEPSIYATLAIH

pIC50: < 7.18
Substance: Isotype

— US20240002503A1
